# Experimental data reported in patent US20110269161.
# T1: peptide E11 (RKRLISSVEDPFR), derived from tuberin (Ser1798)
# T1 chain: RKRLISSVEDPFR
# T2: peptide C6 (TKRSGSVYEPPFR), derived from phosphorylase b kinase regulatory subunit beta (Ser26)
# T2 chain: TKRSGSVYEPPFR
# T3: peptide B6 (PKRKVSSAEGPFR), derived from nonhistone chromosomal protein HMG-14 (Ser6)
# T3 chain: PKRKVSSAEGPFR
# T4: peptide G5 (SKRRNSEFEIPFR), derived from tryptophan 5-hydroxylase 1 (Ser58)
# T4 chain: SKRRNSEFEIPFR
# T5: peptide C11 (NKRRGSVPILPFR), derived from erythrocyte membrane protein band 4.2 (Ser247)
# T5 chain: NKRRGSVPILPFR
# T6: peptide F6 (RIRTQSFSLQPFR), derived from nitric-oxide synthase, endothelial (Ser1176)
# T6 chain: RIRTQSFSLQPFR
# How the values were obtained:
# [1] = biological target: T1, peptide E11 (RKRLISSVEDPFR), derived …
# [2] = biological target: T2, peptide C6 (TKRSGSVYEPPFR), derived …
# [3] = biological target: T3, peptide B6 (PKRKVSSAEGPFR), derived …
# [4] = biological target: T4, peptide G5 (SKRRNSEFEIPFR), derived …
# [5] = biological target: T5, peptide C11 (NKRRGSVPILPFR), derived …
# [6] = biological target: T6, peptide F6 (RIRTQSFSLQPFR), derived …
protein,measurement,setting,value
"90 kDa ribosomal S6 kinases 1 (RSK1, 1-735), purified human active kinase (protein) MPLAQLKEPWPLMELVPLDPENGQTSGEEAGLQPSKDEGVLKEISITHHVKAGSEKADPSHFELLKVLGQGSFGKVFLVRKVTRPDSGHLYAMKVLKKATLKVRDRVRTKMERDILADVNHPFVVKLHYAFQTEGKLYLILDFLRGGDLFTRLSKEVMFTEEDVKFYLAELALGLDHLHSLGIIYRDLKPENILLDEEGHIKLTDFGLSKEAIDHEKKAYSFCGTVEYMAPEVVNRQGHSHSADWWSYGVLMFEMLTGSLPFQGKDRKETMTLILKAKLGMPQFLSTEAQSLLRALFKRNPANRLGSGPDGAEEIKRHVFYSTIDWNKLYRREIKPPFKPAVAQPDDTFYFDTEFTSRTPKDSPGIPPSAGAHQLFRGFSFVATGLMEDDGKPRAPQAPLHSVVQQLHGKNLVFSDGYVVKETIGVGSYSECKRCVHKATNMEYAVKVIDKSKRDPSEEIEILLRYGQHPNIITLKDVYDDGKHVYLVTELMRGGELLDKILRQKFFSEREASFVLHTIGKTVEYLHSQGVVHRDLKPSNILYVDESGNPECLRICDFGFAKQLRAENGLLMTPCYTANFVAPEVLKRQGYDEGCDIWSLGILLYTMLAGYTPFANGPSDTPEEILTRIGSGKFTLSGGNWNTVSETAKDLVSKMLHVDPHQRLTAKQVLQHPWVTQKDKLPQSQLSHQDLQLVKGAMAATYSALNSSKPTPQLKPIESSILAQRRVRKLPSTTL",phosphorylation by purified kinase (KAYAK profiling of 90 peptides),[1],is preferably phosphorylated by purified RSK1 enzyme
same,"in vitro peptide phosphorylation by recombinant kinase (KAYAK, LC-MS)",[2],"recombinant RSK1 could robustly phosphorylate peptides B6, C6, C11 and G5 in vitro"
same,"in vitro peptide phosphorylation by recombinant kinase (KAYAK, LC-MS)",[3],"recombinant RSK1 could robustly phosphorylate peptides B6, C6, C11 and G5 in vitro"
same,"in vitro peptide phosphorylation by recombinant kinase (KAYAK, LC-MS)",[4],"recombinant RSK1 could robustly phosphorylate peptides B6, C6, C11 and G5 in vitro"
same,"in vitro peptide phosphorylation by recombinant kinase (KAYAK, LC-MS)",[5],"recombinant RSK1 could robustly phosphorylate peptides B6, C6, C11 and G5 in vitro"
same,"peptide phosphorylation, 100 µM peptide reacted individually",[6],both RSK and Akt demonstrated strong phosphorylation
